One molecule from US20150377889A1, “GALECTIN-3 AS A MARKER FOR PROSTATE CANCER” (Wayne State University, priority 2013, published 2015) can be followed below.

The test system of assay [1] is co-cultured BAMEC and LNCaP cells. The experiment in a line: Three-dimensional growth and tube formation assay, BAMEC/LNCaP co-culture on […]. It counts as cell-based, bovine, human. The protocol:
Three-dimensional Growth and Tube Formation Assay. To analyze in vitro angiogenesis and interactions between epithelial and endothelial cell formation of tubular networks by co-cultured BAMEC and LNCaP cells, a three-dimensional growth and tube formation assay was performed. Briefly, […]® (10 μl) was added to each chamber of the slide (μ-Slide, ibidi, Martinsried, Germany) and gelled by a 30-min incubation at room temperature, after which 15,000 BAMEC and 5000 LNCaP cells were plated onto the gel in 50 μl of Eagle's minimal essential complete medium. In some chambers, full-length galectin-3 or its fragments were added. After 36 hr, three-dimensional structures were observed under phase contrast microscope and photographed. Images were acquired with an Olympus IX71 microscope supporting a Hamamatsu ORCA-ER video camera. Tube formation image analysis was done using the web-based Image Analysis Win-Tube module of Wimasis online software.
Three-dimensional heterotypic co-cultures of epithelial (LNCaP) and endothelial (BAMEC) cells were performed on […]® to study tube formation in the presence of 10 μg/ml galectin-3 and its fragments. […] FIG. 2B presents a quantitative evaluation of the tube formation assay.

Assay [2] concerns LNCaP, Du145, and PC3M cell lines. The experiment in a line: Wound-healing (scratch) assay. It counts as cell-based, human. The following applies: 24 hr, compared with the control. As for the experimental part: Wound-healing Assay. A wound-healing assay, the scratch assay, was performed according to the protocol published in Liang, et al. (2007), Nat. Protoc. 2, 329-333. Briefly, in this scratch assay 60-mm dishes were coated with ECM and incubated overnight, unbound ECM was removed and the dishes were blocked with bovine serum albumin. Subconfluent growing cells were resuspended in a tissue culture dish by washing cells with PBS, adding versene containing trypsin, and mixing cells with medium containing serum. Cells were then plated onto the prepared 60-mm dish to create a confluent monolayer, and incubated for 6 hr at 37° C.
The cell lines LNCaP (null galectin-3), DU145 (stable clone with reduced galectin-3 expression), and PC3M were used to examine the effect of full-length galectin-3, galectin-3 1-107, and galectin-3 108-250 on prostate cancer cell motility using the scratch assay. The assay was performed with LNCaP, Du145, and PC3M cultured cell lines stimulated by full-length galectin-3, and fragments galectin-3 1-107 and 108-250. A uniform wound was made in each plate using a 1-μl pipette tip. The wound area was observed immediately, then at 24 hr after creation the cells were counted. Cells were grown under identical conditions.

B1: galectin-3 1-107: recombinant fragment 1-107 of human galectin-3 (SEQ ID NO:2), NH2-terminal domain with collagen-like sequence (protein, listed as Homo sapiens)
chain: MADNFSLHDALSGSGNPNPQGWPGAWGNQPAGAGGYPGASYPGAYPGQAPPGAYPGQAPPGAYPGAPGAYPGAPAPGVYPGPPSGPGAYPSSGQPSATGAYPATGPY
In the case of B1, the “tube formation: loops” value in assay [1] (10 μg/ml protein added to medium, 36 hr, control 0) is on record as 0. The “branching morphogenesis of endothelial cells” value in assay [1] (10 μg/ml protein, BAMEC/LNCaP co-culture) is “failed to do so”. In assay [2], the “prostate cancer cell motility” value is reported as “did not show a significant increase in motility”.
